The target in assay [1] is RBDSARS-CoV-2 (SARS-CoV-2 S protein residues 319-539, C-terminal His-tag) (SARS-CoV-2, UniProt P0DTC2 319-539). Briefly: ELISA. (In general: An ELISA detects its analyte on a solid surface through an enzyme-linked reagent.)
The target of assay [2] is RBDSARS-CoV (SARS-CoV S protein residues 318-510, C-terminal His-tag) (SARS-CoV, UniProt P59594 318-510). Briefly: ELISA.

Numbering of substitutions follows the chain as printed.

B1: 4P-92 (VHH)
VHH: QVQLVESGGGLVQTGGSLRLSCAVSGYTFSTFPTAWFRQAPGKEREFVAGIRWNGGSRDYTEYADFVKGRFTISRDNAKNMVYLQMISLKPEDTALYYCAASHGVIDGTSANDYRYWGQGTQVTVSS
A word on the IC50: it is the concentration that inhibits the measured activity by half. A high value points to a need for much substance. For the molecule B1, the half-inhibitory concentration (IC50) was less than 10 nM in assay [1] and 1000 to 8000 nM in assay [2].

B2: 5p-64 (VHH)
VHH: QVQLVESGGGLVQAGGSLRLSCAASGRTFSTYAMAWFRQAPGKEREFVAGVARSADTTYYGDSVKGRFTISRDNAKNEVNLQMSSLKPEDTAVYYCAARSVIQYGIVPGNDFHYEYWGQGTQVTVSS
notes: class V psNb
As to B2, the IC50 in assay [1] and in assay [2] was less than 10 nM each time.

B3: 5p-63 (VHH)
VHH: DVQLVESGGGLVQAGGSLRLSCAASGRSFSTYAMGWFRQAPGKEREFVAGVARSASTTYYTDSVKGRFTISRDNAKNEVYLQMNSLKPEDTAVYYCAARSVIQDTVVPGNPFHYEYWGQGTQVTVSS
Consider B3, for which the IC50 in assay [1] and in assay [2] was less than 10 nM each time.

B4: 5p-175 (VHH)
VHH: B2 VHH with G105S
With B4, the half-inhibitory concentration (IC50) in assay [1] and in assay [2] was less than 10 nM in each case.

B5: 5p-47 (VHH)
VHH: DVQLVESGGGLVQAGGSLRLSCAASGRTFTFNRFAMGWFRQAPEKEREFVAAISRTGRSTEYADSVKGRFAISRDNTKNTVYLQMNSLKPEDTAVYYCAALEAPLLHLIATQRRQYEYWGQGTQVTVSS
Turning to B5, the figures for the IC50 in assay [1] and in assay [2] were less than 10 nM and 1000 to 8000 nM, respectively.

B6: 4P-44 (VHH)
VHH: DVQLVESGGGLVQAGGSLRLSCAASGRTFSRYAAGWFRQAPGKEREFVAVIEWNGDSAYYADSVKGRFTISRDNAKNTVYLQMNRLKPEDTAVYICAVGGNHYSRSKYYTADEYDYWGQGTQVTVSS
On to B6, for which the values for the IC50 in assay [1] and in assay [2] were less than 10 nM and 100 to 1000 nM, respectively.

B7: 4P-71 (VHH)
VHH: B6 VHH with D1H, Y32F, E52D, D56G, E89G, V98I, S104D, R105P, K107R
As to B7, the IC50 in assay [1] is less than 10 nM; in assay [2], 10 to 100 nM.

B8: 5p-117 (VHH)
VHH: DVQLVESGGGLVQAGESLRLSCAASGRTFRNFAAGWFRQTPGKDREFVAVIEYNGDSAYYADSVKGRFTISRDNAKNTVYLQMNRLKPGDTAVYICAIGGNHYDPSKYYIADEYDYWGQGTQVTVSS
As for B8, the IC50 in assay [1] and in assay [2] was less than 10 nM throughout.

B9: 5p-121 (VHH)
VHH: B6 VHH with E46S, N54D, S57T, A61S, V79L, R105S, T110I
B9: the IC50 in assay [1] and in assay [2] was less than 10 nM in each case.

B10: 5p-34 (VHH)
VHH: B6 VHH with D1Q, A23T, A61T, V64A, A75T, V98I, R105P, T110I
As to B10, the IC50 in assay [1] and in assay [2] was less than 10 nM throughout.

B11: 4P-42 (VHH)
VHH: B6 VHH with D1H, N54D, S57N, R105P, S106N
On to B11, for which the IC50 in assay [1] and in assay [2] was less than 10 nM in each case.

B12: 5p-120 (VHH)
VHH: B6 VHH with D1H, N54D, T110N, A111L
For the molecule B12, the IC50 in assay [1] and in assay [2] was less than 10 nM throughout.

B13: 5p-119 (VHH)
VHH: B6 VHH with D1Q, G26R, R31N, D56E, V93I, V98I, T110I
As for B13, the concentration for half-maximal inhibition (IC50) in assay [1] and in assay [2] was less than 10 nM each time.

B14: 5p-61 (VHH)
VHH: QVQLVESGGGLVQAGGSLRLACAGSGGTFSSYIMAWFHQAPGKEREFIAGISKTGSDTYYADSVKGRFTISRDNAKNTVYLQMNSLKPEDTAVYYCAARRGPLITTSRLHYDFWGQGTQVTVSS
As to B14, the IC50 was less than 10 nM in assay [1] and 10 to 100 nM in assay [2].

B15: 5p-26 (VHH)
VHH: DVQLVESGGGLVQAGGSLRLSCAASGRTLRSYNMGWFRQPPGKEREFVAALSWTGLGTYYADSVKGRFTISRDITKNTLYLQMDSLQPEDTANYYCAADSTLDRLHSAESDYRYWGQGTQVTVSS
As for B15, the IC50 in assay [1] is less than 10 nM; in assay [2], more than 8000 nM.

B16: 5p-13 (VHH)
VHH: HVQLVESGGGLVQPGGSLRLSCVASGLTFSRYTMAWFRQAPGKDRIFVAAVSKPGGSTYYADSVKGRFTISRDNAKNTVYLQMNSLKPDDTAVYSCAADLTVLLTANPAHYNYWGHGTQVTVSS
Take B16: the IC50 in assay [1] and in assay [2] was less than 10 nM in each case.

B17: 5p-14 (VHH)
VHH: B16 VHH with H1Q, D44E, I46V, M83T, N84S, S85R, K87N, A109G, N112K, H116Q
In the case of B17, the IC50 in assay [1] and in assay [2] was less than 10 nM throughout.

B18: 5p-40 (VHH)
VHH: B16 VHH with H1D, G16D, K76Q, D99G, H116Q
With B18, the IC50 in assay [1] and in assay [2] was less than 10 nM throughout.

B19: 5p-25 (VHH)
VHH: HVQLVESGGGLVQAGGSLRLSCAASGHISSRYAMAWFRQGPGKERDFVAGMSSGASTFYAESVKGRFTLSRDNAKNAMYLQMNSLKPEDTAVYYCAADSSPLRYGLSYSSNRYDYWGQGTQVTVSS
Regarding B19, the 50% inhibitory concentration (IC50) in assay [1] and in assay [2] was less than 10 nM each time.

B20: 5p-58 (VHH)
VHH: HVQLVESGGGLVQAGESLRLLCVASGSIDSINAMGWFRQAPGKQRELVASISNMHTTMYAESVKGRFTISRDNFKNTADLQMNSLKPEDTAIYFCNLRQGCSYNGCDEYWGQGTQVTVSS
Turning to B20, the IC50 in assay [1] was less than 10 nM; in assay [2], 1000 to 8000 nM.

B21: 5p-165 (VHH)
VHH: B20 VHH with L21S, D29S, M54I, M58L, N73T, F74A, N83D, F94Y, G100D
With B21, the IC50 is less than 10 nM in assay [1] and 10 to 100 nM in assay [2].

B22: 5p-167 (VHH)
VHH: B20 VHH with H1Q, E16G, F74A, G100R
For the molecule B22, the IC50 was less than 10 nM in assay [1] and more than 8000 nM in assay [2].

B23: 5p-59 (VHH)
VHH: QVQLVESGGGLVQAGGSLRLSCAVSGRTISTFGMAWFRQAPGKVREFVATITRDEDLTLYADSVKGRFTISRDTAKNTVFLQMNSLKIEDTALYYCAVRRDDSWGYSRQSIEYDYWGQGTQVTVSS
Take B23: the half-inhibitory concentration (IC50) in assay [1] was less than 10 nM; in assay [2] it was more than 8000 nM.

B24: 5p-1 (VHH)
VHH: QVQLVESGGGLVQAGGSLRLSCAVSGRTGNRWPMGWFRQAPGKEREFVATISWSDSRTYYADSVKGRFTISRDNAKNTVFLQMASLKPEDTAVYYCAAAHARVYGANWSSSNRDDYDSWGQGTQVTVSS
On to B24, for which the 50% inhibitory concentration (IC50) lay in the range of 10 to 100 nM in assay [1] and 100 to 1000 nM in assay [2].

B25: 5p-5 (VHH)
VHH: B24 VHH with H100T
Regarding B25, the IC50 in assay [1] and in assay [2] was 10 to 100 nM in each case.

B26: 4P-1 (VHH)
VHH: B24 VHH with Q1D, V24A, N30S, W32Y, D114Y
With B26, the IC50 lay in the range of 10 to 100 nM in assay [1] and 1000 to 8000 nM in assay [2].

B27: 5p-2 (VHH)
VHH: B24 VHH with N30S, S71A, A101G, S111T, D114Y
Turning to B27, the IC50 in assay [1] and in assay [2] was 10 to 100 nM throughout.

B28: 4P-46 (VHH)
VHH: HVQLVESGGGLVQAGGSLRLSCAASRIFSTSAMGWFRQAPGKEREFVAAISWSGTNTHYADSVKGRFAISTDNAKNTVYLQMNSLKPEDTAVYYCAQGGWGISQPIEVDYWGKGTQVTVSS
Turning to B28, the concentration for half-maximal inhibition (IC50) was less than 10 nM in assay [1] and 10 to 100 nM in assay [2].

B29: 5p-125 (VHH)
VHH: B28 VHH with G16D, S62P, I102L, S103R
As for B29, the concentration for half-maximal inhibition (IC50) in assay [1] was less than 10 nM; in assay [2], 10 to 100 nM.

B30: 5p-128 (VHH)
VHH: B28 VHH with E45Q, A49G, I50T, S51D, T57I, I102V
Take B30: the concentration for half-maximal inhibition (IC50) in assay [1] is less than 10 nM; in assay [2], 10 to 100 nM.

B31: 5p-37 (VHH)
VHH: B28 VHH with H1Q, A60T, S62P, N76S, S103R
Take B31: the IC50 in assay [1] is less than 10 nM; in assay [2], 10 to 100 nM.

B32: 4P-47 (VHH)
VHH: B28 VHH with S25D, R26A, I27R, T55A, S62T, A68T, N73T, S103T, E107S
For the molecule B32, the IC50 in assay [1] and in assay [2] was less than 10 nM throughout.

B33: 5p-127 (VHH)
VHH: B28 VHH with H1E, N56D, D61N, N73A, K86E, I102V, S103R, I106V
Consider B33, for which the 50% inhibitory concentration (IC50) in assay [1] and in assay [2] was less than 10 nM throughout.

B34: 5p-124 (VHH)
VHH: B28 VHH with G16D, T55G, T57V, A60L, T71A, A74S, N76S, Y79F, S103R, P105V
B34: the IC50 in assay [1] and in assay [2] was less than 10 nM throughout.

Source of the values: patent US20250002563A1 (UNIVERSITY OF PITTSBURGH OF THE COMMONWEALTH SYSTEM OF …, published 2025).
